{"source": "the nanobody polyreactivity screen of Harvey et al. (2022)"}
{"assay": "yeast display, Sf9 membrane polyspecificity reagent, FACS + sequencing; frameworks hold sequencing errors", "summary_of_the_method": "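Polyreactivity labels are assigned by the sorting gate from which each nanobody was recovered. The gates were low and high (top ~1%), set on anti-HA fluorescence for expression and streptavidin fluorescence for reagent binding. Before sorting, galactose-induced (36–48 hours) yeast display cells were stained for 1 hour at 4 °C with 10% biotinylated, detergent-solubilized Sf9 membrane reagent.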"}
{"sequence": "QVQLVDSGGGLVQAGGTLRLSCAASGRIFYRYAMGWYRQAPGKERELVASITRSGITHYADSVKGRFTISRDNAKNTVYLQMNSLKPEDTAVYYCKARRGSPAPYDYWGQGTQVTVSS", "polyreactivity (PSR sort gate)": "high polyreactivity"}
{"sequence": "QVQLVDSGGGLVQAGGTLRLSCAASGSTLYFYAMGWYRLAPGKERELVAAITYIGGRTSYADSVKGRFTISRDNAKNTVYLQMNSLKPEDTAVYYCAAAPYGYRRYEYWGQGTQVTVSS", "polyreactivity (PSR sort gate)": "high polyreactivity"}
{"sequence": "QVQLVDSGGGLVQAGVSLRLSCAASGSIFRGNAMGWYRQAPVKERELVAAINKSGGSTYYADSVKGRFTISRDNAKNTVYLQMNSLKQEDTAVYYCAAVYKRLQPYGYWGQGTQVTVSS", "polyreactivity (PSR sort gate)": "high polyreactivity"}
{"sequence": "QVQLVDSGGGLVQAVGSLRLSCAASGRTFYANAMGWYRQAPGKERELVAAISSRSGTTHYADSVKGRFTISRDNAKNTVYLQMNSLKPEDTAVYYCNRQKWRLLTMGAHNRQAYDSWGQGTQVSVSS", "polyreactivity (PSR sort gate)": "low polyreactivity"}
{"sequence": "QVQLVDSGGGLVQEGGSLRISCAASGFTFPRNAMGWYIQAPGKERELVAAINSGGGTNYADSVKGRFTISRDNAKNTVYLQMNSLKPEDTAVYYCAKDHGSFEMDYWGLGTQVTVSS", "polyreactivity (PSR sort gate)": "low polyreactivity"}
{"sequence": "QVQLVDSGGGSVQAGGSLRLSCAASGSTFYENAMGWYRQAPGKERELVAAITWSGGRTYYADSVKGRFTISRDNAKNTVYLQMYSLKPEDTAVYYCNARERSRKFYYWGQGTQVTVSS", "polyreactivity (PSR sort gate)": "high polyreactivity"}
{"sequence": "QVQLVDSGGVLFQAGVSLLISCYASGITFYSYALGRNRRAPGKDWELVASITKSSGRTYYADSVKGRFTISRDNAKTTVSLQMNSVKPEDTAVYYCKAYYVALPPNMDYWGQGTQVTVSS", "polyreactivity (PSR sort gate)": "high polyreactivity"}
{"sequence": "QVQLVDSGGVLVQAGGSLRLSCAASGFTFRDYAMGWYRQAPGKERELVAAISRSGDSTYYADSVKGRFTISRDNAKNTVYLQMNSLKPEDTAVYYYAAKRRYTTYDYWGQGTQVTVSS", "polyreactivity (PSR sort gate)": "high polyreactivity"}
{"sequence": "QVQLVDSGGYLVQAGGSLRLSCAASGTTSLFYAMGWYRQAPGKERELVAAISRTGSTHYADSVKGRFTIARANAKYTVYLQMNSLKAEDTAVYYCAAYYRYRSGRYYYWGQGTQVTVSS", "polyreactivity (PSR sort gate)": "high polyreactivity"}
{"sequence": "QVQLVDSGRGLVQAGGSLRLSCAASGFTVGVNAMGWDRQAPGKERELVAAITRSGGTTYYADSVQGRFTISRDKAKNTVYLQMNSLKPEDTAVYYCNRRARSYADDYWGQGTQVTVSS", "polyreactivity (PSR sort gate)": "high polyreactivity"}
{"sequence": "QVQLVDSGVGLVQAGGSLRLTCAASGITFYYYAMGWYRQAPGKERELVARISSGGSTNYSDSVNGRFTISRDNAKNTVYLQMISLKPEDTAVYYCAAVRHRAMDYWGQGTQVTVSS", "polyreactivity (PSR sort gate)": "low polyreactivity"}
{"sequence": "QVQLVDSVGGLVQAGGTHRLSCAASGSIFEIYAMGWYRQAPGKERELVASITSSGGSTYYADSVKGRFTISRDYAKNTVYLQMNSLKPEDTAVYYCATDKRYGRTVRMDYWGQGTQVTVSS", "polyreactivity (PSR sort gate)": "low polyreactivity"}
{"sequence": "QVQLVDSWGGLVQAGGSLRLSCAASGSIFYRKAMGCYRQAPGKERELFAAITRSDVRTYYADSVKGRFTISRDNAKNTVYLQMNSLKPEDTAVYYCAALEYGSYQHFGEDYWGQGSQVTVSS", "polyreactivity (PSR sort gate)": "low polyreactivity"}
{"sequence": "QVQLVEAGGGFVQAGGSLRLSCAASGSIIVPYAMGWYRQPPGKESELVAAISSRGGRTYYADSVKGRFTISRENAMNSVYLQMNSLKPEDSAVYDCNKTGGSHIPRLEYWGQGTQVTVSS", "polyreactivity (PSR sort gate)": "low polyreactivity"}
{"sequence": "QVQLVEAGGGLGQAGGSLRLSCAASGRILTPYARGWYRQAPGKERELVAANTSGGRTHYAHSVKGRFTMSRDNAKNTVYLQMNSLTPEDTAVYYCAARVRTGWWVRDDYWGQGTQVTLSS", "polyreactivity (PSR sort gate)": "high polyreactivity"}
{"sequence": "QVQLVEAGGGLVQAGGRLRLSCAASGSIFRRNAMGWYRQAPGTERELVASISSSGGSTYYADSVKGRFTLSRDNAMNTVYLQMNSLKPEDTAVYYCNAYRIRPGTPYGNGYYYWGQGTQVTGSS", "polyreactivity (PSR sort gate)": "high polyreactivity"}
{"sequence": "QVQLVEAGGGLVQAGGSLRISCAASGITFLSNAMGWYRQAPGKEMELVAVITIGGSTYYADSVKGRFTISRDNAKNTVFLQLNSLKPEDTAVYYCAVELVAVPDRRFNYWGQGTQVTVSS", "polyreactivity (PSR sort gate)": "low polyreactivity"}
{"sequence": "QVQLVEAGGGLVQAGGSLRLSCAASGGIFSTYTMRWYRQAPGKERELVAAITTGNSTYYADSVKVRFTISRDNAKNTVYLQMNSLKPEDSAVYYCAAFADSRDYYRRLIHDGYDYWGQGTQVTVSS", "polyreactivity (PSR sort gate)": "low polyreactivity"}
{"sequence": "QVQLVEAGGGLVQAGGSLRLSCAASGITFGDNAMGWYIQAPGKDRELVAAITLSDVDTYADSVKGRFTISRDNSKNTVYLQMISLKPEDTAVYDCAADYDFFSLYLYDYWGQGTQVTVSS", "polyreactivity (PSR sort gate)": "low polyreactivity"}
{"sequence": "QVQLVEAGGGLVQAGGSLRLSCAASGRIFRTYAMGWYRQAPGKESELVAAINISGDRTYYADSVKGRFTISRDHAKNTVYLQMNSLKPEDTAVYYCAAAGYRYWGAIYYWGQGTQVTVSS", "polyreactivity (PSR sort gate)": "high polyreactivity"}
{"sequence": "QVQLVEAGGGLVQAGGSLRLSCAASGRTFKGYAMGWYRPAPGKERELVAAITKRGGSTYYADSVKGRFTISRDNAKNTVYLQMNSLKPEDTAVYYCNADKQGSRHGDDYWGQGTQVTVSS", "polyreactivity (PSR sort gate)": "high polyreactivity"}
{"sequence": "QVQLVEAGGGLVQAGGSLRLSCAASGSIFAQNVRGWSRQAPGKERELVAAISYSGGTTYYADSVKGRFTISRDNAMNTVYLQMNSLKPEDTAVYDCAAEFGVYEYDYWGQGTQVTVSS", "polyreactivity (PSR sort gate)": "low polyreactivity"}
{"sequence": "QVQLVEAGGGLVQAGGSLRLSCAASGSTFAGYAMGWYRQAPGKERELVATITYSGGSTYYADSVKGRFTISRDNAKNTVYLQMNSLKPEDTAVYYCAKKASYWWGYEYWGQGTQVTVSS", "polyreactivity (PSR sort gate)": "low polyreactivity"}
{"sequence": "QVQLVEAGGGLVQAGGSLRLSCAASVSTLFFNAMGWYRQGTGKERELVAGITDGGNTNYADSVKGRFTISRDNAKNTVYIQMNSLKPEDTAVYYCATDGVNPFYAYDYWGQGTQVTVSS", "polyreactivity (PSR sort gate)": "low polyreactivity"}
{"sequence": "QVQLVEAGGGLVQAGGSLRLSCAPSGFTFGSYARRCYRQAPGKERELVAAIRLSGGSTTYADSVKGRFTITRDNEKKTVYLQMNSLKAEDTAVYYCAARVHVGYYWTFYYWGQGTQVTVSS", "polyreactivity (PSR sort gate)": "high polyreactivity"}
{"sequence": "QVQLVEAGGRLVQAAGSLRLSLAASAFNTTAMGWYRQAPGKDRELVAAITSDGDSTYYADSVKGRFTISRDNAQNTDYFQKNCVKPVDTAVYYCAADAVPTSVVYWGFYGMYWGQGTQVTVSS", "polyreactivity (PSR sort gate)": "low polyreactivity"}
{"sequence": "QVQLVEAGRGLVQAGGSLRLSCAASGRTIDHYAMGWYRQAPGKERELVAAMSPTGGSTYYADSVKGRFTISRDNAKNSVYLQMNSLKPEDTAVYYCNARYYFYSATVDRYYHFYYWGQGTQVTVSS", "polyreactivity (PSR sort gate)": "high polyreactivity"}
{"sequence": "QVQLVEKGGCLVQAGGSLSLSCAAYGRTFILNSMGCYRQAPWKEMELVAAISWSGGSTYYADSVKGRFTISRDNAKNTVYLQMNSLKPEDTAVYYCAAETYAYLFHTYDYWGQGTQVTVSS", "polyreactivity (PSR sort gate)": "low polyreactivity"}
{"sequence": "QVQLVEKGGGLVQAGGSLRLSCAASGRTFQYYAMGWYRQAPGNERELVAAINQGGGRTYYADSVKGRFTISRDNAKNTVYLQMNSLKPEDTAVYYCAADGLSKFDYWGQGTQVTVSS", "polyreactivity (PSR sort gate)": "low polyreactivity"}
{"sequence": "QVQLVEPGGGLVQAGGSLRLSCAASGSTFTLYAMGWYRQAPGKERELVATLTGSAGSTNYADSVKGRFTISRDNAKNTVYLQMNSLKPEDTAVYYCAKRVQQSTWYGYGIGYEYWGQGTQVTVSS", "polyreactivity (PSR sort gate)": "high polyreactivity"}
{"sequence": "QVQLVEPGGGLVQAGGSLRLSCAASGSTFVEYDMGWYRQAPGKERELVAGINSGDRTNYADSVKGRFTISRDNEKNTVYLQMNSLKPEDTAVYYCAVDYRSYAYDYWGQGTQVSVSS", "polyreactivity (PSR sort gate)": "low polyreactivity"}
{"sequence": "QVQLVESAAGLVQAGGSHRLSCAASGFTFDHYAMGWSRQEPGKESELVAAISKRGGTTYYADSVKGRFTISRDNAKNTVYLQTKSLKPEDTAVYYCNADVNNWEDDYYYWGQGTQVTVSS", "polyreactivity (PSR sort gate)": "high polyreactivity"}
{"sequence": "QVQLVESAAGLVQAGGSLRLRCAASGRIFSDYAMGWYRQAPGKERELVATITSGDSTNYADSVKGRFTISGDNAKNTDYLQMNSLKPEDTAVYYCNADRFADYDYWGQGTQLTVSS", "polyreactivity (PSR sort gate)": "low polyreactivity"}
{"sequence": "QVQLVESAAGLVQAGGSLRLSGAASGRIFRYNAMGGYRQAPGNERELVAAISSGGSTNYADSVKGRFTTSRDNAKNTVYLQMNSLKPEDTAVYYCNADSVHRYPGWGYDYWGLGTQVTVSS", "polyreactivity (PSR sort gate)": "low polyreactivity"}
{"sequence": "QVQLVESAGGLDQAGGSLRLSCAASGSIFYIYAMGWYRQAPGKERELVATISGSGGSTHYADSVKGRFTISRDNAKNSVYLQKNSLKPEDTAVYYCAADVLPYGYYWGQGPQVTVSS", "polyreactivity (PSR sort gate)": "low polyreactivity"}
{"sequence": "QVQLVESAGGLVQAAGSLRLSCAASGSIFSTNAMGWYRQAPGKERELVAAITYRGRTFYADSVKGRFTISRDNAKNTVYLQMNSLKPEDTAVYYCNAVGISWFGYLKAYVYWGKGTQVTVSS", "polyreactivity (PSR sort gate)": "high polyreactivity"}
{"sequence": "QVQLVESAGGLVQAGASLRLSCDASGRIFPSNAMGWSRQAPGKERELVAAITSSGGSTYYADSVKGRFTISRDYAKNTVYLQMNSLKPEHTAVYYCPARFYSGPGGYTIYYWGQGTQVTVSS", "polyreactivity (PSR sort gate)": "high polyreactivity"}
{"sequence": "QVQLVESAGGLVQAGASRRLSCAASGRTVSLYTMGWSRQSPGKESELVASITSSGSTSYADSVKGRFTISRDNAKNTVYLQMNSLKPEDTAVYYCNAAVSYPKYPYVSPGVPSYDYWGQGTQVTVSS", "polyreactivity (PSR sort gate)": "low polyreactivity"}
{"sequence": "QVQLVESAGGLVQAGGILRLSCAASGSTFDSYGMGWYRQAPGKERELVASISVSGGGTYYADSVKGRFTISRDNAKNTVYLQMNSLKPEDTAVYYCNARYGNESQGWEDYWGQGTQVTVSS", "polyreactivity (PSR sort gate)": "low polyreactivity"}
{"sequence": "QVQLVESAGGLVQAGGRLRLSCAASGFIFTTNAMGWYRQAPGKEREFVAAITRSGGSTYADSVKGRFTISRDNAKNTVYLQMNSLKPEDTAVYYFNADWAGVDTSYEYDYWGQGTQVTVSS", "polyreactivity (PSR sort gate)": "low polyreactivity"}
{"sequence": "QVQLVESAGGLVQAGGRLSLICAASGYTFYYHAMGWYRQAPGKERELVASIRSRGRSTYYADSVKGRFTISRDNAKNTVYLQMNSLKPEDTAVYYCAALPNKPAVYAYDYWGQGTQVTVSS", "polyreactivity (PSR sort gate)": "low polyreactivity"}
{"sequence": "QVQLVESAGGLVQAGGSLLLSCAASGSTFGTYAMGWYRQAPGKERELVAAISTGGSTYYADSVKGRFTISRDNAKNTVYLQMNSLKPEDTAVYYCAALAEYVRRASDYWGQGTQVTVSS", "polyreactivity (PSR sort gate)": "low polyreactivity"}
{"sequence": "QVQLVESAGGLVQAGGSLRITCAASASTYSWYTMGWYREAPGKERELVASINYSGTNTYYADSVKGRFTISRDNAKNTVYLQMNSLNPEDTAVYYCAARPRTKLTAYNYCGQGTQVTVSS", "polyreactivity (PSR sort gate)": "high polyreactivity"}
